Assay results: patent US20130177960

Tests used:
Assay in all cases: cell_activity
[1] = tested on: SBS34077 ZFN (synthetic); settings: pair with 33115, D17 cells
[2] = tested on: SBS33115 ZFN (synthetic); settings: pair with 34077, D17 cells
[3] = tested on: SBS35393 ZFN (synthetic); settings: pair with 35361
[4] = tested on: SBS30724 ZFN (synthetic); settings: pair with 30725, AAV in mouse liver, Cel-I
[5] = tested on: SBS30872 ZFN (synthetic); settings: pair with 30873, AAV8 in mouse liver, Cel-I; up to 17% over both pairs
[6] = tested on: SBS36806 ZFN (synthetic); settings: pair with 35396, RF/6A
[7] = tested on: SBS36813 ZFN (synthetic); settings: pair with 35396, RF/6A
[8] = tested on: SBS36819 ZFN (synthetic); settings: pair with 35396, RF/6A
[9] = tested on: SBS36820 ZFN (synthetic); settings: pair with 35396, RF/6A
[10] = tested on: SBS36808 ZFN (synthetic); settings: pair with 35396, RF/6A
[11] = tested on: SBS30873 ZFN (synthetic); settings: pair with 30872, AAV8 in mouse liver, Cel-I; up to 17% over both pairs
[12] = tested on: SBS30725 ZFN (synthetic); settings: pair with 30724, AAV in mouse liver, Cel-I
[13] = tested on: SBS35370 ZFN (synthetic); settings: pair with 35396

## AAGTCATGTGGAGAGAAACACAAAGAGT (double strand) [34077 site]
[1]
  activity: 30 % indels

## AGTATTCGTTTGCTCCAAAATATTTGCC (double strand) [33115 site]
[2]
  activity: 30 % indels

## CCTATCCATTGCACTATGCTTTATTTAA (double strand) [human locus 2 left site (conserved in rhesus)]
[3]
  activity (% mutated targets): 18

## CTGAAGGTGGCAATGGTTCCTCTCTGCT (double strand) [30724 site]
[4]
  activity: < 21 % indels

## CTTGGCTGTGTAGGAGGGGAGTAGCAGT (double strand) [30872 site]
[5]
  activity: < 17 % indels

## TTAGGGACAGTTATGAATTCAATCTTCA (double strand) [rhesus partner site]
[6]
  activity: 20.5 % indels
[7]
  activity: 21 % indels
[8]
  activity: 30 % indels
[9]
  activity: 23 % indels
[10]
  activity: 26 % indels

## TTCCTAAGTTGGCAGTGGCATGCTTAAT (double strand) [30873 site]
[11]
  activity: < 17 % indels

## TTTCCTGTAACGATCGGGAACTGGCATC (double strand) [30725 site]
[12]
  activity: < 21 % indels

## TTTGGGATAGTTATGAATTCAATCTTCA (double strand) [human locus 2 partner site]
[13]
  activity (% mutated targets): 22
